Earlier results in publication PMC5515885.

Molecular target: Nup153 (Homo sapiens) (UniProt P49790)
Sequence of UniProt P49790 (P49790 2-1475): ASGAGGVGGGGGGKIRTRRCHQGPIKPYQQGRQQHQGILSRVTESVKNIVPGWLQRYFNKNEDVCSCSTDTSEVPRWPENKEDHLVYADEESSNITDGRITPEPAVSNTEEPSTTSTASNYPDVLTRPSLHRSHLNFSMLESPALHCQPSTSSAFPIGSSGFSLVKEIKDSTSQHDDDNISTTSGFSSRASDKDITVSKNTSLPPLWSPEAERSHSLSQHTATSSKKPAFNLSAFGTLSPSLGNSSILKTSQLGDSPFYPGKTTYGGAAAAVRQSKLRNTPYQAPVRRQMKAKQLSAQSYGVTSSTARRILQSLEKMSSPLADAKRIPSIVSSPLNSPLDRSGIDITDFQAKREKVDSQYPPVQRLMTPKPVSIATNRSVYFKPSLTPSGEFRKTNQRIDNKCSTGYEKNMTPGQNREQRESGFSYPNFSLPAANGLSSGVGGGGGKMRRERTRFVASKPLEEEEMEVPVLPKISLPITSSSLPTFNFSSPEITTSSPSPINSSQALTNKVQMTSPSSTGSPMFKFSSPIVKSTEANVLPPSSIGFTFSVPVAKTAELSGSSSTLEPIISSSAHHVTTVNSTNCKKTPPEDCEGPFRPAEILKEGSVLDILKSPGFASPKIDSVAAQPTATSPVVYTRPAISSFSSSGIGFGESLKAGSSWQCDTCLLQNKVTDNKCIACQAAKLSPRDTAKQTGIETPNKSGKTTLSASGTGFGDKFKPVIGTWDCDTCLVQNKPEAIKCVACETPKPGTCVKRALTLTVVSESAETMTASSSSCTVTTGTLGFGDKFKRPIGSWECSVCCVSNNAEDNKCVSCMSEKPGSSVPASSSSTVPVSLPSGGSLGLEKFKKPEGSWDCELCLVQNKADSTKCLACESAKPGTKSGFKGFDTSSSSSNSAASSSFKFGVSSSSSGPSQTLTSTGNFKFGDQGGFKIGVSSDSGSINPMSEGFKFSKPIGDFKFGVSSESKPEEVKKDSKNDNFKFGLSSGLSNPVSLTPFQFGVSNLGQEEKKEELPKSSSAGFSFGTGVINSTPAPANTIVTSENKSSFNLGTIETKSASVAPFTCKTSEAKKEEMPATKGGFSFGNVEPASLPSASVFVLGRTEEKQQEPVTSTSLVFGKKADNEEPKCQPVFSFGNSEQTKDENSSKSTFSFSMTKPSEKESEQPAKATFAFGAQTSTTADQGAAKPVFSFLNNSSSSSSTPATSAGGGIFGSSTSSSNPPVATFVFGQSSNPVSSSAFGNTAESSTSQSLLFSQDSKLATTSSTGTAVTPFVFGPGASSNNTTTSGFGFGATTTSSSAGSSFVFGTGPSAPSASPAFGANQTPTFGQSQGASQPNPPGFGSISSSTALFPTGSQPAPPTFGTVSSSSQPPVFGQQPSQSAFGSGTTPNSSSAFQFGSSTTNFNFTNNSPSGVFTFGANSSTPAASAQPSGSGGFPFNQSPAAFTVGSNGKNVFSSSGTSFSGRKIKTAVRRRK

Kd: 9 nM
Substance: importin beta (from UniProt Q14974)
